Paper PMC10942344 (bioRxiv, 2024)

Assays:
Experiment in all cases: SPR
[1] = biological target: recombinant GP38 of CCHFV 200406546-Turkey (CCHFV 200406546-Turkey, UniProt A0A0U2SQZ0, strain)
[2] = biological target: recombinant GP38 of CCHFV Kosova-Hoti (CCHFV Kosova-Hoti, UniProt B2BSL7, strain)
[3] = biological target: recombinant GP38 of CCHFV Oman-199809166 (CCHFV Oman-199809166, UniProt A0A0U3C6Q7, strain)

Measured: Kd

B1: ADI-58048 IgG (antibody, V domains shown)
VH: QLQLQESGPGLVKPSETLSLTCTVSGGSITTSHYYWGWIRQPPGKGLEWVGSMYYSGGIYYNPSLKGRVTISVDTSKNQFSLKLSSVTAADTAVYYCALADAPDDAFDIWGQGTMVTVSS
VL: DIQMTQSPSSLSAFVGDRVTITCRASQSISSYLNWYQQKPGKAPKLLIYAASTLQSGVPSRFSGSGSGTDFTLTISSLQSEDFATYYCQESYSIPFTFGPGTKVDIK
< 398 pM: all assays above
